According to US20100298539A1:
Several values for one entry are separate records, joined by “and”; a condition that tells them apart may be missing. Equal entries are not always repeated.

Assays:
[1] = biological target: CD88-N-term peptide ABCF-1 (biotinylated C5aR peptide) (UniProt P21730); experiment: C5aR peptide ELISA, lysate
[2] = biological target: CD88-N-term peptide ABCF-1 (biotinylated C5aR peptide) (UniProt P21730); experiment: C5aR peptide ELISA
[3] = biological target: human C5a receptor (C5aR) (human) (UniProt P21730); experiment: dual fMLP-F/α-C5aR-PE flow cytometry on neutrophils
[4] = biological target: human C5a receptor (C5aR) (human) (UniProt P21730)
[5] = biological target: human C5a receptor (C5aR) (human) (UniProt P21730); experiment: flow cytometry on U937/C5aR cells, 2H7 detection

CD88-N-term peptide ABCF-1 (biotinylated C5aR peptide), sequence (P21730 7-28 limits assumed): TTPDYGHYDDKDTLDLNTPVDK
human C5a receptor (C5aR) (human), sequence (P21730 whole entry): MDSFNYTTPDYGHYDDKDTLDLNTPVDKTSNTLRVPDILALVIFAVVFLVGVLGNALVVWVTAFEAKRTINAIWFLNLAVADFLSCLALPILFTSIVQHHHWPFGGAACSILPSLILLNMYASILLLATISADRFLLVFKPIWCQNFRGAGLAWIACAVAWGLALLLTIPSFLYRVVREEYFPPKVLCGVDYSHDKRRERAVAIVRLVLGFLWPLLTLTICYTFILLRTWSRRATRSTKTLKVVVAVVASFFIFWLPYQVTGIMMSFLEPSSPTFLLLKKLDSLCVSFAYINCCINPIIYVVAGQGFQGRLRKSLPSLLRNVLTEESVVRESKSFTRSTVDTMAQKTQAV

For “CHIPS E67A (from UniProt A6QIG7 29-149) (other; other documents disagree on this pair)”, the pept-ELISA bindn (%) [1] was 52% and 39%.

“CHIPS G33A (from UniProt A6QIG7 29-149) (other; other documents disagree on this pair)” showed a pept-ELISA bindn (%) [1] of 13%.

“CHIPS G52A (from UniProt A6QIG7 29-149) (other; other documents disagree on this pair)” was tested, and the pept-ELISA bindn (%) [1] was 19% and 20%.

With “CHIPS K69A control (lysate), A6QIG7 29-140” the specific activity (%) [2] was 116%, the Abs 492 nm [1] was 1.41 and 1.39 and the Pep. bind. [1] was 126 ng/mL and 120 ng/mL. The Pep. bind. Log (ng/ml) [1] was 2.1 log ng/ml and 2.08 log ng/ml, the Spec. activity pep/expr (%) [1] was 116% and 112% and the pept-ELISA bindn (%) [1] was 15%.

With “CHIPS L34A (from UniProt A6QIG7 29-149) (other; other documents disagree on this pair)” the pept-ELISA bindn (%) [1] was 13% and 12%.

With “CHIPS L76A (from UniProt A6QIG7 29-149) (other; other documents disagree on this pair)” the pept-ELISA bindn (%) [1] was 1% and 2%.

For “CHIPS L90A (from UniProt A6QIG7 29-149) (other; other documents disagree on this pair)”, the pept-ELISA bindn (%) [1] was 25% and 24%.

For “CHIPS N31A (from UniProt A6QIG7 29-149) (other; other documents disagree on this pair)”, the pept-ELISA bindn (%) [1] was 16% and 23%.

For “CHIPS N55A (from UniProt A6QIG7 29-149) (other; other documents disagree on this pair)”, the pept-ELISA bindn (%) [1] was 8% and 9%.

“CHIPS P35A (from UniProt A6QIG7 29-149) (other; other documents disagree on this pair)” was tested, and the pept-ELISA bindn (%) [1] was 54% and 68%.

For “CHIPS P79A (from UniProt A6QIG7 29-149) (other; other documents disagree on this pair)”, the pept-ELISA bindn (%) [1] was 28% and 25%.

In the case of “CHIPS Q58A (from UniProt A6QIG7 29-149) (other; other documents disagree on this pair)”, the pept-ELISA bindn (%) [1] was 2% and 3%.

Substance “CHIPS S32A (from UniProt A6QIG7 29-149) (other; other documents disagree on this pair)” has a pept-ELISA bindn (%) [1] of 15%.

In the case of “CHIPS S56A (from UniProt A6QIG7 29-149) (other; other documents disagree on this pair)”, the pept-ELISA bindn (%) [1] was 18% and 16%.

In the case of “CHIPS S107A (from UniProt A6QIG7 29-149) (other; other documents disagree on this pair)”, the pept-ELISA bindn (%) [1] was 11%.

Substance “CHIPS T53A (from UniProt A6QIG7 29-149) (other; other documents disagree on this pair)” has a pept-ELISA bindn (%) [1] of 7%.

For “CHIPS Y48A (from UniProt A6QIG7 29-149) (other; other documents disagree on this pair)”, the pept-ELISA bindn (%) [1] was 86% and 70%.

In the case of “CHIPS Y108A (from UniProt A6QIG7 29-149) (other; other documents disagree on this pair)”, the pept-ELISA bindn (%) [1] was 1%.

For “CHIPS clone 1F8 (Y48H, D83G, L90P), A6QIG7 29-140”, the specific activity (%) [2] was 93%.

For “CHIPS clone 2C9 (K54R, K69R, K100R, K105R), A6QIG7 29-140”, the specific activity (%) [2] was 115%.

“CHIPS clone 2D5 (K40E, K69A, N111K, G112V), A6QIG7 29-138” showed a specific activity (%) [2] of 132%.

With “CHIPS clone 2H5 (K69A, K100R, K101R), A6QIG7 29-140” the specific activity (%) [2] was 113%.

“CHIPS clone 3C4 (K69A, G112V), A6QIG7 29-139” gave a specific activity (%) [2] of 94%.

With “CHIPS clone 3H1 (G112V) (from UniProt A6QIG7 29-139) (other; other documents disagree on this pair)” the specific activity (%) [2] was 109%.

CHIPS clone 4E5 (K69T), A6QIG7 29-140 showed a specific activity (%) [2] of 76%.

Substance CHIPS clone 5H1 (K50N), A6QIG7 29-140 has a specific activity (%) [2] of 88%.

Substance CHIPS clone 6E1 (S104Y), A6QIG7 29-140 has a specific activity (%) [2] of 76%.

In the case of “CHIPS clone 7B3 (N111I) (from UniProt A6QIG7 29-140) (other; other documents disagree on this pair)”, the specific activity (%) [2] was 140%.

“CHIPS clone 7E4 (K40N, K92R), A6QIG7 29-140” gave a specific activity (%) [2] of 65%.

For “CHIPSwt control (lysate) (from UniProt A6QIG7 29-149) (other; other documents disagree on this pair)”, the specific activity (%) [2] was 106%, the Abs 492 nm [1] was 1.48 and 1.41 and the Pep. bind. [1] was 155 ng/mL and 126 ng/mL. For the same substance, the Pep. bind. Log (ng/ml) [1] was 2.19 log ng/ml and 2.1 log ng/ml, the Spec. activity pep/expr (%) [1] was 119% and 106% and the pept-ELISA bindn (%) [1] was 21%.

“Chemotaxis Inhibitory Protein of Staphylococcus aureus (CHIPS), wildtype, amino acids 1-121 (from UniProt A6QIG7 29-149)” showed a Dual bind PMN (%) [3] of 112%, an IC50 (read off the curve) [4] of 0.07 ng/mL and a Binding U937cells C5aR (0.3 µg/ml) % of wt 1-112 [5] of 28%.
